Source: patent publication US20170204158A1 (Regeneron, published 2017)

What was measured:
[1] = target: T1, human IL-33 (R&D Systems, # 3625-IL-010/CF) (human, UniProt O95760 112-270, biotinylated in the blocking ELISA of Example 3 (sites not given)); assay: SPR (Biacore T-200), 37 C; Fc fusion captured by anti-Fc antibody, IL-33 injected
T1 construct: Commercial protein; also called hIL-33; biot-hIL-33
T1 sequence (looked up): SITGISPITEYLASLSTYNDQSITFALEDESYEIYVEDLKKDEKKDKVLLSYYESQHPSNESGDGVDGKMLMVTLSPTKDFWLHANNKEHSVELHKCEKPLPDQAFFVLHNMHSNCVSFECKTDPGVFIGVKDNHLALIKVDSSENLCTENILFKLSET
Description: (§1) The Biacore sensor surface was first derivatized by amine coupling a polyclonal rabbit anti-mouse antibody (GE, # BR-1008-38) or with a monoclonal mouse anti-human Fc antibody (GE, # BR-1008-39) to capture IL-33 Trap and receptor proteins with a C-terminal mouse IgG2a Fc tag or a C-terminal human IgG1 Fc tag, respectively. Kinetic experiments were carried out in 0.01 M HEPES pH 7.4, 0.15 M NaCl, 3 mM EDTA, and 0.005% v/v Surfactant Tween-20 (HBST running buffer). Different concentrations of human IL-33, mouse IL-33 or MfIL-33-6His prepared in HBST running buffer (ranging from 60 nM to 27.4 pM, 3-fold dilutions, for Trap proteins and ranging from 60 nM to 0.25 nM, 3-fold dilutions, for ST2 receptor proteins) were injected over the captured IL-33 Trap and receptor protein surfaces at a flow rate of 50 μL/minute. Association of different IL-33 proteins to the different capture surfaces was monitored for 7 minutes for Trap proteins or 4 minutes for ST2 receptor proteins and their dissociation in HBST running buffer was monitored for 14 minutes for Trap proteins or 8 minutes for ST2 receptor proteins. Kinetic association (ka) and dissociation (kd) rate constants were determined by fitting the real-time binding sensorgrams to a 1:1 binding model using Scrubber 2.0c curve-fitting software. Binding dissociation equilibrium constants (KD) and dissociative half-lives (t½) were calculated from the kinetic rate constants as: […]

[2] = target: T2, monkey IL-33 expressed with C-terminal hexahistidine tag (MfIL-33-6His) (cynomolgus monkey (M. fascicularis)); assay: SPR (Biacore T-200), 37 C; Fc fusion captured by anti-Fc antibody, MfIL-33-6His injected
T2 construct: also called M. fascicularis IL-33-6His; cynomolgus monkey IL-33
T2 chain: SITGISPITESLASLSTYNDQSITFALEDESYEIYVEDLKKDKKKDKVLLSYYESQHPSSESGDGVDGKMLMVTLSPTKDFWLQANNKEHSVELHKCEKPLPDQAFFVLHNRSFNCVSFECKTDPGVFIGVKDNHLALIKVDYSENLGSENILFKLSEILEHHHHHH
Description: as §1

[3] = target: T3, mouse IL-33 (R&D Systems, # 3626-ML-010/CF) (mouse, UniProt Q8BVZ5 109-266); assay: cell-based or functional assay
T3 sequence (looked up): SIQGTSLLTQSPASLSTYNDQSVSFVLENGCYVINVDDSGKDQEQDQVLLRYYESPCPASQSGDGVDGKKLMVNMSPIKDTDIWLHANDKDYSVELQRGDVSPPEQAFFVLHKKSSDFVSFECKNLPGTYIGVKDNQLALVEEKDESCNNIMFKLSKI

[4] = target: T1, human IL-33 (R&D Systems, # …); assay: cell-based or functional assay
[5] = target: T2, monkey IL-33 expressed with C-terminal …; assay: cell-based or functional assay
[6] = target: T3, mouse IL-33 (R&D Systems, # …); assay: SPR (Biacore T-200), 37 C; Fc fusion captured by anti-Fc antibody, mouse IL-33 injected
Description: as §1

[7] = target: T3, mouse IL-33 (R&D Systems, # …); assay: SPR (Biacore T-200), 25 C; Fc fusion captured by anti-Fc antibody, mouse IL-33 injected
Description: as §1

[8] = target: T2, monkey IL-33 expressed with C-terminal …; assay: SPR (Biacore T-200), 25 C; Fc fusion captured by anti-Fc antibody, MfIL-33-6His injected
Description: as §1

[9] = target: T1, human IL-33 (R&D Systems, # …); assay: competition ELISA; antagonist pre-mixed with 20 pM biotin-hIL-33, binding to plate-coated human ST2-Fc; highest concentration tested
Description: (§2) The ability of exemplary IL-33 antagonists of the invention to block human IL-33 (hIL-33) binding to the human ST2 receptor was measured using a competition sandwich ELISA. A portion of human ST2 protein ecto domain that was expressed with a C-terminal mouse Fc tag (SEQ ID NO:2) was coated at a concentration of 1 μg/mL in PBS buffer on a 96-well microtiter plate overnight at 4° C. […] Biotinylated hIL-33 protein (R&D systems, #3625-IL/CF) (biot-hIL-33) was added to achieve a constant final concentration of 20 pM to serial dilutions of IL-33 antagonists ranging from 0 to 100 nM. The mixture was incubated for 1 hour at room temperature (RT) before transfer to the hST2-hFc coated microtiter plates. After incubation for 1 hour at RT, the wells were then washed, and plate-bound biot-hIL-33 was detected with HRP-conjugated streptavidin (Thermo Scientific, # N200). All samples were developed with a TMB solution (BD biosciences, # 51-2607KC) to produce a colorimetric reaction and then quenched by acidification with 1M sulfuric acid before measuring absorbance at 450 nm on a Victor X5 plate reader (PerkinElmer). Data analysis was performed using a sigmoidal dose-response model within Prism™ software. […] Maximum blocking values represent the ability of the antagonists to block IL-33 binding relative to baseline. The absorbance measured at the constant amount of hIL-33 on the dose curve was defined as 0% blocking and the absorbance with no added IL-33 was defined as 100% blocking. The absorbance values of the wells containing the highest concentration tested for each antagonist were used to determine the maximum blocking percent.

[10] = target: T1, human IL-33 (R&D Systems, # …); assay: competition ELISA; antagonist pre-mixed with 20 pM biotin-hIL-33, binding to plate-coated human ST2-Fc
Description: as §2

[11] = target: T1, human IL-33 (R&D Systems, # …); assay: SPR (Biacore T-200), 25 C; Fc fusion captured by anti-Fc antibody, IL-33 injected
Description: as §1

B1: mST2-mIL1RAcP-mFc (Fc fusion)
chain: SKSSWGLENEALIVRCPQRGRSTYPVEWYYSDTNESIPTQKRNRIFVSRDRLKFLPARVEDSGIYACVIRSPNLNKTGYLNVTIHKKPPSCNIPDYLMYSTVRGSDKNFKITCPTIDLYNWTAPVQWFKNCKALQEPRFRAHRSYLFIDNVTHDDEGDYTCQFTHAENGTNYIVTATRSFTVEEKGFSMFPVITNPPYNHTMEVEIGKPASIACSACFGKGSHFLADVLWQINKTVVGNFGEARIQEEEGRNESSSNDMDCLTSVLRITGVTEKDLSLEYDCLALNLHGMIRHTIRLRRKQPIDHRSERCDDWGLDTMRQIQVFEDEPARIKCPLFEHFLKYNYSTAHSSGLTLIWYWTRQDRDLEEPINFRLPENRISKEKDVLWFRPTLLNDTGNYTCMLRNTTYCSKVAFPLEVVQKDSCFNSAMRFPVHKMYIEHGIHKITCPNVDGYFPSSVKPSVTWYKGCTEIVDFHNVLPEGMNLSFFIPLVSNNGNYTCVVTYPENGRLFHLTRTVTVKVVGSPKDALPPQIYSPNDRVVYEKEPGEELVIPCKVYFSFIMDSHNEVWWTIDGKKPDDVTVDITINESVSYSSTEDETRTQILSIKKVTPEDLRRNYVCHARNTKGEAEQAAKVKQKVIPPRYTVESGEPRGPTIKPCPPCKCPAPNLLGGPSVFIFPPKIKDVLMISLSPIVTCVVVDVSEDDPDVQISWFVNNVEVHTAQTQTHREDYNSTLRVVSALPIQHQDWMSGKEFKCKVNNKDLPAPIERTISKPKGSVRAPQVYVLPPPEEEMTKKQVTLTCMVTDFMPEDIYVEWTNNGKTELNYKNTEPVLDSDGSYFMYSKLRVEKKNWVERNSYSCSVVHEGLHNHHTTKSFSRTPGK
notes: also called fourth IL-33 antagonist; mouse IL-33 Trap
In the case of B1, the “60 nM Human IL-33 Bound (RU)” value [1] is reported as 20 RU, the Kd [1] is reported as 0.353 nM and the koff [1] is reported as 0.00322 s⁻¹. For the same binder, the kon [1] was 9.11e+06 M⁻¹ s⁻¹, the t1/2 [1] was 4 min and the “60 nM Monkey IL-33 Bound (RU)” value [2] was 21 RU. It also gave a Kd [2] of 0.19 nM, a koff [2] of 0.00117 s⁻¹ and a kon [2] of 6.16e+06 M⁻¹ s⁻¹. For the same binder, the t1/2 [2] was 10 min, the “IC50 (M), inhibition of 30 pM mouse IL-33 activation of HEK293/hST2/NFkB-luciferase cells” value [3] was 8.7e-12 M and the “IC50 (M), inhibition of 5 pM human IL-33 activation of HEK293/hST2/NFkB-luciferase cells” value [4] was 4.8e-10 M. The “IC50 (M), inhibition of 5 pM monkey IL-33 activation of HEK293/hST2/NFkB-luciferase cells” value [5] was 6.4e-11 M, the “60 nM Mouse IL-33 Bound (RU)” value [6] was 20 RU and the Kd [6] was 0.0213 nM. For the same binder, the koff [6] was 0.000128 s⁻¹, the kon [6] was 6e+06 M⁻¹ s⁻¹ and the t1/2 [6] was 90 min. For the same binder, the “60 nM Mouse IL-33 Bound (RU)” value [7] was 22 RU, the Kd [7] was 0.0105 nM and the koff [7] was 4.94e-05 s⁻¹. For the same binder, the kon [7] was 4.73e+06 M⁻¹ s⁻¹, the t1/2 [7] was 234 min and the “60 nM Monkey IL-33 Bound (RU)” value [8] was 23 RU. The Kd [8] was 0.0535 nM, the koff [8] was 0.000244 s⁻¹ and the kon [8] was 4.55e+06 M⁻¹ s⁻¹. For the same binder, the t1/2 [8] was 47 min, the “% Maximum blocking” value [9] was 97% and the IC50 [10] was 0.112 nM. The “60 nM Human IL-33 Bound (RU)” value [11] was 22 RU, the Kd [11] was 0.0709 nM and the koff [11] was 0.00129 s⁻¹. The kon [11] was 1.82e+07 M⁻¹ s⁻¹ and the t1/2 [11] was 9 min.

B2: hST2-mFc (Fc fusion)
chain: KFSKQSWGLENEALIVRCPRQGKPSYTVDWYYSQTNKSIPTQERNRVFASGQLLKFLPAAVADSGIYTCIVRSPTFNRTGYANVTIYKKQSDCNVPDYLMYSTVSGSEKNSKIYCPTIDLYNWTAPLEWFKNCQALQGSRYRAHKSFLVIDNVMTEDAGDYTCKFIHNENGANYSVTATRSFTVKDEQGFSLFPVIGAPAQNEIKEVEIGKNANLTCSACFGKGTQFLAAVLWQLNGTKITDFGEPRIQQEEGQNQSFSNGLACLDMVLRIADVKEEDLLLQYDCLALNLHGLRRHTVRLSRKNPIDHHSEPRGPTIKPCPPCKCPAPNLLGGPSVFIFPPKIKDVLMISLSPIVTCVVVDVSEDDPDVQISWFVNNVEVHTAQTQTHREDYNSTLRVVSALPIQHQDWMSGKEFKCKVNNKDLPAPIERTISKPKGSVRAPQVYVLPPPEEEMTKKQVTLTCMVTDFMPEDIYVEWTNNGKTELNYKNTEPVLDSDGSYFMYSKLRVEKKNWVERNSYSCSVVHEGLHNHHTTKSFSRTPGK
notes: also called second IL-33 antagonist; ST2 receptor protein
B2 was tested, and the “IC50 (M), inhibition of 30 pM mouse IL-33 activation of HEK293/hST2/NFkB-luciferase cells” value [3] was 1.4e-10 M, the “IC50 (M), inhibition of 5 pM human IL-33 activation of HEK293/hST2/NFkB-luciferase cells” value [4] was 1.2e-11 M and the “IC50 (M), inhibition of 5 pM monkey IL-33 activation of HEK293/hST2/NFkB-luciferase cells” value [5] was 5.5e-12 M. For the same binder, the “60 nM Mouse IL-33 Bound (RU)” value [7] was 18 RU, the Kd [7] was 0.0882 nM and the koff [7] was 0.00035 s⁻¹. For the same binder, the kon [7] was 3.97e+06 M⁻¹ s⁻¹, the t1/2 [7] was 33 min and the “% Maximum blocking” value [9] was 100%. The IC50 [10] was 0.0169 nM, the “60 nM Human IL-33 Bound (RU)” value [11] was 24 RU and the Kd [11] was 0.0536 nM. It also gave a koff [11] of 0.000307 s⁻¹, a kon [11] of 5.72e+06 M⁻¹ s⁻¹ and a t1/2 [11] of 38 min.
